# Values quoted from earlier work in article PMC5331467.
# Molecular target: Tyr7 (UniProt position 7, SHHWGYGKHNG)
# Assay: NMR (jointly with neutron crystallography)
substance,measurement,value
Carbonic anhydrase II (CA-II) (Homo sapiens),pKa,7.1
